{"source": "IntAct's records for PubMed 18049475", "key": {"gck3_caeel gck-3 [1]": {"target": "gck3_caeel gck-3 (UniProt G5EEN4)", "sequence (G5EEN4 whole entry)": "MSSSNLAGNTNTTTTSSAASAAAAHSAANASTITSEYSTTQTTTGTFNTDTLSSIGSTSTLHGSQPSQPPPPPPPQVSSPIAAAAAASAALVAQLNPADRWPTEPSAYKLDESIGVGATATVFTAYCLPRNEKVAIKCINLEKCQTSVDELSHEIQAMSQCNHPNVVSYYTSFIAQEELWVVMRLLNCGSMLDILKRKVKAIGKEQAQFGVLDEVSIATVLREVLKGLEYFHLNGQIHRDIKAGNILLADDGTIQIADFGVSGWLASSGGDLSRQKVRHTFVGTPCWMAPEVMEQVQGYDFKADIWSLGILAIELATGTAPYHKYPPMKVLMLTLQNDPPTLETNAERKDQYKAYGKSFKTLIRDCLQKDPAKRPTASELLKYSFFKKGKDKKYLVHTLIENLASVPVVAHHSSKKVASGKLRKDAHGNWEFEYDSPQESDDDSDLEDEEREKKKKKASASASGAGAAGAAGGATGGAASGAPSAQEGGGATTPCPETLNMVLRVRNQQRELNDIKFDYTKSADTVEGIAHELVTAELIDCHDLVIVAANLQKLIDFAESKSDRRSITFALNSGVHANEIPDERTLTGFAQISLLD"}, "gck3_caeel gck-3 [2]": {"target": "gck3_caeel gck-3 (UniProt G5EEN4)", "remark": "listed apart in the source"}, "gck3_caeel gck-3 [3]": {"target": "gck3_caeel gck-3 (UniProt G5EEN4)", "remark": "listed apart in the source"}}, "data": [{"substance": "Serine/threonine-protein kinase WNK (Caenorhabditis elegans), X5M5N0 F1222A", "values": [{"measurement": "effect of a mutation on the interaction", "setting": "gck3_caeel gck-3 [1]", "result": "decreasing interaction"}]}, {"substance": "Serine/threonine-protein kinase WNK (Caenorhabditis elegans), X5M5N0 F1133A;F1222A", "values": [{"measurement": "effect of a mutation on the interaction", "setting": "gck3_caeel gck-3 [2]", "result": "disrupting interaction"}]}, {"substance": "Serine/threonine-protein kinase WNK (Caenorhabditis elegans), X5M5N0 F1133A", "values": [{"measurement": "effect of a mutation on the interaction", "setting": "gck3_caeel gck-3 [3]", "result": "decreasing interaction"}]}]}
